Data as given in US20140093892A1 (KOREA RESEARCH INSTITUTE OF BIOSCIENCE AND BIOTECHNOLOGY, published 2014).

Target: T1, CK8 recombinant protein (human cytokeratin 8, tag sequence included) (human, UniProt P05787 1-483)
T1 construct: Expressed in E. coli BL21(DE3) as inclusion bodies, dissolved in 8 M urea/PBS; also called KRT8 Keratin, type II cytoskeletal 8
T1 sequence (looked up): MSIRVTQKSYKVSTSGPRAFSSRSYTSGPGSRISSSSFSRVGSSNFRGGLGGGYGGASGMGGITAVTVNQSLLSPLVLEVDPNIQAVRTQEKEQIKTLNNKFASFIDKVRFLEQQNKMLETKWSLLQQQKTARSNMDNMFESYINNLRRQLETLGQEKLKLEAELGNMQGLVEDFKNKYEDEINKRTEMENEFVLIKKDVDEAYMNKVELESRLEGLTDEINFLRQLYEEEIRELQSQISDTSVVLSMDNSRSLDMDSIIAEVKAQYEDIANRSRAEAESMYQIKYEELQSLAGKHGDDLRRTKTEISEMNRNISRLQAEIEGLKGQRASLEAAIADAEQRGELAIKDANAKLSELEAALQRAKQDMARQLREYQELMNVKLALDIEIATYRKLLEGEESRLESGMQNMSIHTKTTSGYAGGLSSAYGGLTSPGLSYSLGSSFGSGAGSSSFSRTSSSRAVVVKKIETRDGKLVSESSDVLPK
Experiment: overlay of recombinant protein solution (50 µg/ml) on blotted partner protein, read out by TAB-K94 reactivity

B1: CK18 recombinant protein (human cytokeratin 18, tag sequence included) (other, UniProt P05783 1-430, looked up, not shown: small tags and cut ends)
chain: MSFTTRSTFSTNYRSLGSVQAPSYGARPVSSAASVYAGAGGSGSRISVSRSTSFRGGMGSGGLATGIAGGLAGMGGIQNEKETMQSLNDRLASYLDRVRSLETENRRLESKIREHLEKKGPQVRDWSHYFKIIEDLRAQIFANTVDNARIVLQIDNARLAADDFRVKYETELAMRQSVENDIHGLRKVIDDTNITRLQLETEIEALKEELLFMKKNHEEEVKGLQAQIASSGLTVEVDAPKSQDLAKIMADIRAQYDELARKNREELDKYWSQQIEESTTVVTTQSAEVGAAETTLTELRRTVQSLEIDLDSMRNLKASLENSLREVEARYALQMEQLNGILLHLESELAQTRAEGQRQAQEYEALLNIKVKLEAEIATYRRLLEDGEDFNLGDALDSSNSMQTIQKTTTRRIVDGKVVSETNDTKVLRH
notes: Expressed in E. coli BL21(DE3) as inclusion bodies, dissolved in 8 M urea/PBS; also called KRT18 Keratin, type I cytoskeletal 18
B1: binds.
